The record followed here is publication PMC6555816, “Tau local structure shields an amyloid-forming motif and controls aggregation propensity” (Nature Communications, 2019).

B1: R2R3-G303V peptide fragment (peptide, UniProt P10636-8 295-311, looked up)
peptide: Ac-DNIKHVPGVGSVQIVYK-NH2
notes: source: synthetic peptide (Genscript)
B2: 306VQIVYK311 hexapeptide (peptide)
peptide: Ac-VQIVYK-NH2
notes: also called amyloid motif; source: synthetic peptide (Genscript)
B3: R2R3-S305N peptide fragment (peptide, UniProt P10636-8 295-311, looked up)
peptide: Ac-DNIKHVPGGGNVQIVYK-NH2
notes: as for B1
B4: R2R3-P301S peptide fragment (peptide, UniProt P10636-8 295-311, looked up)
peptide: Ac-DNIKHVSGGGSVQIVYK-NH2
notes: as for B1
B5: R2R3-P301L peptide fragment (peptide, UniProt P10636-8 295-311, looked up)
peptide: Ac-DNIKHVLGGGSVQIVYK-NH2
notes: as for B1
B6: R2R3-N296Δ peptide fragment (peptide, UniProt P10636-8 295-311, looked up)
peptide: Ac-DIKHVPGGGSVQIVYK-NH2
notes: as for B1
B7: R2R3-V300I peptide fragment (peptide, UniProt P10636-8 295-311, looked up)
peptide: Ac-DNIKHIPGGGSVQIVYK-NH2
notes: as for B1

The data set deals with the molecule itself. Nature of the data set: ThT fluorescence aggregation assay; spontaneous self-assembly of disaggregated synthetic peptides, 200 µM, PBS, 25 µM ThT, room temperature, no inducer; the R2R3 peptides of Fig. 4 also looked at by TEM.
B1: the binding result is listed as “binds”.
As for B2, the entry is “binds”; as for B3, “binds”; as for B4, “binds”.
As for B5, the entry is “binds”; as for B6, “binds”.
Consider B7, for which the binding result is “binds”.
